The labels stand for the following.
T1: chymase (native, human skin mast cell) (Homo sapiens, UniProt P23946 P23946:22-247)
T1 sequence: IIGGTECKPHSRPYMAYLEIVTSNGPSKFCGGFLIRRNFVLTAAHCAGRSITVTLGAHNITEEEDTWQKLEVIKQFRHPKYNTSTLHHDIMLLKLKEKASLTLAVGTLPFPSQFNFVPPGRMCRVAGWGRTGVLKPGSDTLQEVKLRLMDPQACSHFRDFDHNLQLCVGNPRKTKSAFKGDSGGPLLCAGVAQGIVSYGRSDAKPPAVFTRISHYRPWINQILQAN

B1: SEQ ID NO: 33(1) (mixed)
RNA: AUGAUCGGACAUAACUAAUUAGGGGUGUCAA
modifications: idT-A(M)U(M)G(M)A(M)U(F)C(F)G(M)G(M)A(M)C(M)A(M)U(M)AAC(M)U(F)AAU(F)U(M)AG(M)GG(M)G(M)TG(M)U(M)C(M)A(M)A(M)-idT (F=2'-F, M=2'-OMe)
B2: SEQ ID NO: 33(14) (mixed)
RNA: B1 RNA
modifications: idT-A(M)U(M)G(M)A(M)U(F)C(F)G(M)G(M)A(M)C(M)A(M)U(M)AAC(M)U(F)A(M)A(M)T(M)U(M)A(M)G(M)GG(M)G(M)TG(M)U(M)C(M)A(M)A(M)-idT (F=2'-F, M=2'-OMe)
B3: SEQ ID NO: 33(17) (mixed)
RNA: B1 RNA
modifications: idT-A(PHE)U(M)G(M)A(M)U(F)C(F)G(M)G(M)A(M)C(M)A(M)U(M)AAC(M)U(F)A(M)A(M)U(M)U(M)A(M)G(M)GG(M)G(M)TG(M)U(M)C(M)A(M)A(M)-idT (F=2'-F, M=2'-OMe, PHE=8-(propyl)phenyl-rA)
B4: SEQ ID NO: 33(13) (mixed)
RNA: B1 RNA
modifications: idT-A(M)U(M)G(M)A(M)U(F)C(F)G(M)G(M)A(M)C(M)A(M)U(M)AAC(M)T(M)A(M)A(M)U(M)U(M)A(M)G(M)GG(M)G(M)TG(M)U(M)C(M)A(M)A(M)-idT (F=2'-F, M=2'-OMe)
B5: SEQ ID NO: 33(6) (mixed)
RNA: B1 RNA
modifications: idT-A(M)U(M)G(M)A(M)U(F)C(F)G(M)G(M)A(M)C(F)A(M)U(M)AAC(M)U(F)A(M)A(M)U(M)U(M)A(M)G(M)GG(M)G(M)TG(M)U(M)C(M)A(M)A(M)-idT (F=2'-F, M=2'-OMe)
B6: SEQ ID NO: 33(16) (mixed)
RNA: B1 RNA
modifications: idT-A(M)U(M)G(M)A(M)U(F)C(F)G(M)G(M)A(M)C(M)A(M)U(M)AAC(M)U(F)A(M)A(M)U(M)U(M)A(M)G(M)GG(M)G(M)T(M)G(M)U(M)C(M)A(M)A(M)-idT (F=2'-F, M=2'-OMe)
B7: SEQ ID NO: 33(4) (mixed)
RNA: B1 RNA
modifications: idT-A(PHE)U(M)G(M)A(M)U(F)C(F)G(M)G(M)A(M)C(F)A(M)U(M)AAC(M)U(F)A(M)A(M)U(F)U(M)A(M)G(M)GG(M)G(M)TG(M)TC(M)A(M)A(M)-idT (F=2'-F, M=2'-OMe, PHE=8-(propyl)phenyl-rA; printed 1J(F) read as U(F))
B8: SEQ ID NO: 33(8) (mixed)
RNA: B1 RNA
modifications: idT-A(M)U(M)G(M)A(M)U(F)C(F)G(M)G(M)A(M)C(M)A(M)U(M)AA(M)C(M)U(F)A(M)A(M)U(M)U(M)A(M)G(M)GG(M)G(M)TG(M)U(M)C(M)A(M)A(M)-idT (F=2'-F, M=2'-OMe)
B9: SEQ ID NO: 33(11) (mixed)
RNA: B1 RNA
modifications: idT-A(M)U(M)G(M)A(M)U(F)C(F)G(M)G(M)A(M)C(M)A(M)U(M)AAC(M)U(F)A(M)A(M)TU(M)A(M)G(M)GG(M)G(M)TG(M)U(M)C(M)A(M)A(M)-idT (F=2'-F, M=2'-OMe)
B10: SEQ ID NO: 33(10) (mixed)
RNA: B1 RNA
modifications: idT-A(M)U(M)G(M)A(M)U(F)C(F)G(M)G(M)A(M)C(M)A(M)U(M)AAC(M)TA(M)A(M)U(M)U(M)A(M)G(M)GG(M)G(M)TG(M)U(M)C(M)A(M)A(M)-idT (F=2'-F, M=2'-OMe)
B11: SEQ ID NO: 33(12) (mixed)
RNA: B1 RNA
modifications: idT-A(M)U(M)G(M)A(M)U(F)C(F)G(M)G(M)A(M)C(M)A(M)U(M)AAC(M)U(F)A(M)A(M)U(M)TA(M)G(M)GG(M)G(M)TG(M)U(M)C(M)A(M)A(M)-idT (F=2'-F, M=2'-OMe)
B12: SEQ ID NO: 33(15) (mixed)
RNA: B1 RNA
modifications: idT-A(M)U(M)G(M)A(M)U(F)C(F)G(M)G(M)A(M)C(M)A(M)U(M)AAC(M)U(F)A(M)A(M)U(M)T(M)A(M)G(M)GG(M)G(M)TG(M)U(M)C(M)A(M)A(M)-idT (F=2'-F, M=2'-OMe)
B13: SEQ ID NO: 33(5) (mixed)
RNA: B1 RNA
modifications: idT-A(PHE)U(M)G(M)A(M)U(F)C(F)G(M)G(M)A(M)C(F)A(M)U(M)AAC(M)U(F)A(M)A(M)U(F)U(M)A(M)G(M)GG(M)G(M)TG(M)U(M)C(M)A(M)A(M)-idT (F=2'-F, M=2'-OMe, PHE=8-(propyl)phenyl-rA)
B14: SEQ ID NO: 33(7) (mixed)
RNA: B1 RNA
modifications: idT-A(M)U(M)G(M)A(M)U(F)C(F)G(M)G(M)A(M)C(M)A(M)U(M)A(M)AC(M)U(F)A(M)A(M)U(M)U(M)A(M)G(M)GG(M)G(M)TG(M)U(M)C(M)A(M)A(M)-idT (F=2'-F, M=2'-OMe)
B15: SEQ ID NO: 33(2) (mixed)
RNA: B1 RNA
modifications: idT-A(M)U(M)G(M)A(M)U(F)C(F)G(M)G(M)A(M)C(F)A(M)U(M)AAC(M)U(F)AAU(F)U(M)AG(M)GG(M)G(M)TG(M)TC(M)A(M)A(M)-idT (F=2'-F, M=2'-OMe)
B16: SEQ ID NO: 33(3) (mixed)
RNA: B1 RNA
modifications: idT-A(PHE)U(M)G(M)A(M)U(F)C(F)G(M)G(M)A(M)C(M)A(M)U(M)AAC(M)U(F)A(M)A(M)U(F)U(M)A(M)G(M)GG(M)G(M)TG(M)U(M)C(M)A(M)A(M)-idT (F=2'-F, M=2'-OMe, PHE=8-(propyl)phenyl-rA)
B17: SEQ ID NO: 17(17) (mixed)
RNA: GAUGAUCGGACAUAACAUUGUUGGGGUGUCAA
modifications: idT-G(M)A(M)U(F)G(M)A(M)U(F)C(F)G(M)G(M)A(M)C(F)A(M)U(F)AAC(F)A(M)TTG(M)U(F)U(F)G(M)GG(M)G(M)TG(M)TCA(M)A(PHE)-idT (F=2'-F, M=2'-OMe, PHE=8-(propyl)phenyl-rA)
B18: SEQ ID NO: 17(16) (mixed)
RNA: B17 RNA
modifications: idT-G(M)A(M)U(F)G(M)A(M)U(F)C(F)G(M)G(M)A(M)C(F)A(M)U(F)AAC(F)A(M)TTG(M)U(F)U(F)G(M)GG(M)G(M)TG(M)TCA(PHE)A(M)-idT (F=2'-F, M=2'-OMe, PHE=8-(propyl)phenyl-rA)
B19: SEQ ID NO: 17(18) (mixed)
RNA: B17 RNA
modifications: idT-G(M)A(M)U(F)G(M)A(M)U(F)C(F)G(M)G(M)A(M)C(F)A(M)U(F)sAAC(F)A(M)TTG(M)U(F)U(F)G(M)GG(M)G(M)TG(M)TCA(M)A(M)-idT (F=2'-F, M=2'-OMe, s=PS)
B20: SEQ ID NO: 17(14) (mixed)
RNA: B17 RNA
modifications: idT-G(M)A(M)U(F)G(M)A(M)U(F)C(F)G(M)G(M)A(M)C(F)A(M)U(F)AAC(F)A(M)TTG(M)U(F)U(F)G(M)GG(M)G(M)TG(M)TCA(M)A(M)-S-Y (F=2'-F, M=2'-OMe; Y=Cys-Phe peptide, S=thiol)
B21: SEQ ID NO: 17(20) (mixed)
RNA: B17 RNA
modifications: idT-G(M)A(M)U(F)G(M)A(M)U(F)C(F)G(M)G(M)A(M)C(F)A(M)U(F)AAsC(F)A(M)TTG(M)U(F)U(F)G(M)GG(M)G(M)TG(M)TCA(M)A(M)-idT (F=2'-F, M=2'-OMe, s=PS)
B22: SEQ ID NO: 17(23) (ssRNA)
RNA: B17 RNA
modifications: idT-G(M)A(PHE)U(F)G(M)A(M)U(F)C(F)G(M)G(M)A(M)C(F)A(M)U(F)AAC(F)AU(F)U(F)G(M)U(F)U(F)G(M)GG(M)G(M)U(F)G(M)U(F)C(F)A(M)A(M)-idT (F=2'-F, M=2'-OMe, PHE=8-(propyl)phenyl-rA)

The text below walks through data of patent US20210002644, “ANTI-CHYMASE APTAMER AND USE FOR SAME” (RIBOMIC INC., published 2021).

One series addresses T1, chymase (native, human skin mast cell). The series can be described thus: inhibition; angiotensin I substrate. The settings on record: tags: Calbiochem Human Skin. On the procedure:
(§1) The total volume of solution for an enzyme reaction in the assay was set to 50 μL, and the reaction was performed in solution C buffer. At first, native (manufactured by Calbiochem) was diluted with solution C to give 5 μL thereof. Here, the native is chymase purified from human skin mast cell. The nucleic acid was serially diluted with solution C at a concentration of 0.0027-2 μM to give 25 μL thereof. The chymase solution (5 μL) and the nucleic acid solution (25 μL) were mixed, and the mixture was incubated at 37° C. for 5 min. On the other hand, […] angiotensin I (manufactured by PEPTIDE […], INC.) was prepared in solution C to give 20 μL thereof, which was incubated at 37° C. for 5 min. The angiotensin I solution was added to a mixture of chymase and nucleic acid to start an enzyme reaction. The final chymase concentration of the reaction solution was 0.5 nM, and the final substrate concentration was 50 μM. After reaction at 37° C. for 90 min, ice-cooled 30% trichloroacetic acid solution (25 μL) was added to quench the reaction. The whole mixture was centrifuged at 4° C., 14000 rpm for 10 min, and the supernatant (30 μL) was used for the next fluorescence induction reaction.
(§2) The above-mentioned supernatant (30 μL) was added to a 96 well plate (black, manufactured by Costar), a solution (15 μL) of 2% o-phthalaldehyde (manufactured by SIGMA) in methanol and 0.3M NaOH solution (170 μL) were added to each well, and the mixture was incubated at room temperature for 10 min. Then, 3M HCl solution (25 μL) was added to quench the reaction. The plate was set on a microplate reader SpectraMax190 (manufactured by Molecular device) and the fluorescence intensity was measured at an excitation wavelength of 355 nm and a fluorescence wavelength of 460 nm.
All nucleic acids of SEQ ID NO: 33(1)-33(18) were prepared by chemical synthesis. The aptamers shown by these sequences were measured by a method similar to the inhibitory activity evaluation method for chymase inhibitory activity shown in Example 1 by using angiotensin I as a substrate. In the Table, the IC₅₀ value is a mean of 2 or 3 measurements.
As for B1, half-maximal inhibition (IC50) required 0.074 nM.

B2 returned an IC50 of 0.075 nM.

B3 yielded an IC50 of 0.038 nM.

Regarding B4, the IC50 turned out to be 0.069 nM.

In turn, B5 yielded an IC50 of 0.053 nM.

B6 displayed an IC50 of 0.063 nM.

Turning to B7, the IC50 was 0.072 nM.

On to B8, for which the IC50 was 0.061 nM.

B9 returned an IC50 of 0.051 nM.

Take B10: the midpoint of inhibition, the IC50, lay at 0.071 nM.

Consider B11, for which the IC50 was 0.048 nM.

Molecule B12 registered an IC50 of 0.072 nM.

As to B13, the IC50 is 0.076 nM.

In the case of B14, half-maximal inhibition (IC50) was put at 0.071 nM.

In turn, B15 returned an IC50 of 0.078 nM.

On to B16, for which the midpoint of inhibition, the IC50, lay at 0.071 nM.

A further series shares this target. The series can be described thus: inhibition; angiotensin I substrate. The settings on record: tags: Calbiochem Human Skin. This is another data set of the same source. On the procedure: as §1, §2
All nucleic acids of SEQ ID NO: 17(1)-17(25) were prepared by chemical synthesis. In the evaluation of SEQ ID NO: 17(1)-17(25), a method similar to the evaluation method of inhibitory activity against chymase shown in Example 1 by using angiotensin I as a substrate was used for measurement. In the Table, the IC₅₀ value is a mean of 2 or 3 measurements.
Molecule B17 had an IC50 of 0.19 nM.

As to B18, the midpoint of inhibition, the IC50, lay at 0.18 nM.

B19 returned a half-maximal inhibitory concentration (IC50) of 0.15 nM.

In turn, B20 showed an IC50 of 0.19 nM.

The molecule B21 returned an IC50 of 0.18 nM.

B22 had an IC50 of 0.16 nM.

One may read the IC50 as the midpoint of a concentration-inhibition curve. A lower IC50 goes with greater potency.
